Measured values as given in patent US20170291939A1 (Novartis, published 2017).
Where two headings read alike, the source gives them in different places.

Tests used:
BSA [1] = target: BSA (UniProt P02769); experiment: ELISA, BSA wells, control antibody 1 µg/ml (XAB1 set)
BSA [2] = target: BSA (UniProt P02769); experiment: ELISA, BSA wells, control antibody 5 µg/ml (XAB4 set)
[3] = target: T1, recombinant huIL-17A (SEQ ID NO: 76) (human, UniProt Q16552 24-155, limits assumed); experiment: cell-based or functional assay
T1 sequence: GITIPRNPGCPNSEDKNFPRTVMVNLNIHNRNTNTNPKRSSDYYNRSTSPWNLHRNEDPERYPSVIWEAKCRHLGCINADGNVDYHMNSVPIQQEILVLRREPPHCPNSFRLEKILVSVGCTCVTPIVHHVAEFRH

[4] = target: T2, recombinant huIL-17A/F heterodimer (human, UniProt Q16552 24-155; Q96PD4 31-163, limits assumed); experiment: cell-based or functional assay
T2 sequence (looked up) 1: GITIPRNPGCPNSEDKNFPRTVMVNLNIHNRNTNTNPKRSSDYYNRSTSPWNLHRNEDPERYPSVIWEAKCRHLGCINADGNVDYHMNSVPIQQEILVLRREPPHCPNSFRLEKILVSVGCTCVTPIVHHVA
T2 sequence (looked up) 2: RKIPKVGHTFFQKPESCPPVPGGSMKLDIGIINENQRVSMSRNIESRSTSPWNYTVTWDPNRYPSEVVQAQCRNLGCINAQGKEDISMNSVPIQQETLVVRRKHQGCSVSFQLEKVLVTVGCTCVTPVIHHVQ

recombinant huIL-17F [5] = target: T3, recombinant huIL-17F (human, UniProt Q96PD4 31-163); experiment: cell-based or functional assay
T3 sequence: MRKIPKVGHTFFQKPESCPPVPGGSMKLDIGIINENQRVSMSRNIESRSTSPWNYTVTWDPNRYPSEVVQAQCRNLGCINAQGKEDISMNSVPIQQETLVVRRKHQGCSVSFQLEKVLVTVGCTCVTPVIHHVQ

recombinant mIL-17A [6] = target: T4, recombinant mIL-17A (mouse, UniProt Q62386 26-158); experiment: cell-based or functional assay
T4 sequence: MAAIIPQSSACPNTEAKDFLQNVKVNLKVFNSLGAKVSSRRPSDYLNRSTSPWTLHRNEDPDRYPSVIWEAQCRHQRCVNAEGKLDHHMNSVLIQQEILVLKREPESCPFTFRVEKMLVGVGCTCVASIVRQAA

[7] = target: recombinant mIL-17A/F (R&D Systems Cat#5390-IL) (mouse) (UniProt Q62386); experiment: cell-based or functional assay
rat IL-17A = target: T5, rat IL-17A (rat, UniProt Q61453 18-150); experiment: cell-based or functional assay
T5 sequence: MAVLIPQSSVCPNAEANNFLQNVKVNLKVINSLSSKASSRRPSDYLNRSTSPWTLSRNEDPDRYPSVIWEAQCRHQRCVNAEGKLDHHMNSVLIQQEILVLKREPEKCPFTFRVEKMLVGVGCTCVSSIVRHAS

[8] = target: T6, recombinant mIL-17F (SEQ ID NO: 84) (mouse, UniProt Q7TNI7 29-161); experiment: cell-based or functional assay
T6 sequence: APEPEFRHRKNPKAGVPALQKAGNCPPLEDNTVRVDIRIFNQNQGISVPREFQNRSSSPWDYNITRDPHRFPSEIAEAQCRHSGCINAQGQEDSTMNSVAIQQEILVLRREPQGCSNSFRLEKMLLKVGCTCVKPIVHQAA

[9] = target: T7, human IL-17A (construct not specified) (human, UniProt Q16552 24-155, limits assumed); experiment: cell-based or functional assay
T7 sequence: T1 sequence

[10] = target: T1, recombinant huIL-17A (SEQ ID NO: 76); experiment: cell-based or functional assay; remark: listed apart in the source
[11] = target: T2, recombinant huIL-17A/F heterodimer; experiment: cell-based or functional assay; remark: listed apart in the source
recombinant huIL-17F [12] = target: T3, recombinant huIL-17F; experiment: cell-based or functional assay; remark: listed apart in the source
[13] = target: T1, recombinant huIL-17A (SEQ ID NO: 76); experiment: cell-based or functional assay; remark: listed apart in the source
[14] = target: T2, recombinant huIL-17A/F heterodimer; experiment: cell-based or functional assay; remark: listed apart in the source
recombinant huIL-17F [15] = target: T3, recombinant huIL-17F; experiment: cell-based or functional assay; remark: listed apart in the source
[16] = target: T1, recombinant huIL-17A (SEQ ID NO: 76); experiment: cell-based or functional assay; remark: listed apart in the source
[17] = target: T1, recombinant huIL-17A (SEQ ID NO: 76); experiment: cell-based or functional assay; remark: listed apart in the source
recombinant mIL-17A [18] = target: T4, recombinant mIL-17A; experiment: cell-based or functional assay; remark: listed apart in the source
[19] = target: T8, recombinant mIL-17A/F (R&D Systems Cat#5390-IL) (mouse, UniProt Q62386 26-158; Q7TNI7 29-161, limits assumed); experiment: cell-based or functional assay
T8 sequence (looked up) 1: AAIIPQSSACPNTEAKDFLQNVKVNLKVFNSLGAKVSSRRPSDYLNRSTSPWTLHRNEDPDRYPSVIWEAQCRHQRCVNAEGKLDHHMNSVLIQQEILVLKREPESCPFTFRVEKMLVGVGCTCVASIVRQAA
T8 sequence (looked up) 2: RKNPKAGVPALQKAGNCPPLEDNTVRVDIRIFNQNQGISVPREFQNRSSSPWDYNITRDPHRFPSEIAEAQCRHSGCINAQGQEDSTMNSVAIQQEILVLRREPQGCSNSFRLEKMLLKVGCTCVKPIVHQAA

recombinant mIL-17A [20] = target: T4, recombinant mIL-17A; experiment: cell-based or functional assay; remark: listed apart in the source

Sequence of BSA (P02769 25-607 limits assumed): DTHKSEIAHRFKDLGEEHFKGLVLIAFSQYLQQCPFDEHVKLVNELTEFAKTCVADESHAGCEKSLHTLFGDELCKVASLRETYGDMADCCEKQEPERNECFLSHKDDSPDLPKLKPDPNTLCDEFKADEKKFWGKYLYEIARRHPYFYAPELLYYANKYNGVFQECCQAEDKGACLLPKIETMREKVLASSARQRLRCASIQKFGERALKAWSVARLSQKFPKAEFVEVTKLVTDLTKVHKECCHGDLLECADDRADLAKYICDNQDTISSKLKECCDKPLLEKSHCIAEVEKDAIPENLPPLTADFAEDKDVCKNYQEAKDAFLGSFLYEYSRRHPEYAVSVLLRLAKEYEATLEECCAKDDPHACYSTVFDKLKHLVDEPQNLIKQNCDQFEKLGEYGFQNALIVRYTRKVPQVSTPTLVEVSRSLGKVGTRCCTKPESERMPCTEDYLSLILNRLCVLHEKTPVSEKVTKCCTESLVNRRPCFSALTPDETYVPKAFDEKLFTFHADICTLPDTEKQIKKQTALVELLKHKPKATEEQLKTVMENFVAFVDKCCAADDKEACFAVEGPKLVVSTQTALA

Molecule: Control antibody (BSA wells of Table 23; not identified)
- O.D. (BSA [1]): 0.149 O.D.
- O.D. (BSA [2]): 0.01 O.D.

Molecule: Simulect® (1.1% solution, Batch C0011; 831179) (antibody)
- IC50, hu-GRO-alpha secretion by BJ cells; IL-17A (30 pM) + TNF-α (6 pM) [3]: > 3000 nM
- IC50, hu-GRO-alpha secretion by BJ cells; IL-17A (1 nM) [3]: > 100 nM
- IC50, huIL-6 secretion by BJ cells; rhuIL-17A (30 pM) + rhuTNF-α (6 pM) [3]: > 3000 nM
- IC50, huIL-6 secretion by BJ cells; rhuIL-17A (1 nM) [3]: > 100 nM
- IC50, hu-GRO-alpha secretion by BJ cells; IL-17A/F (300 pM) + TNF-α (6 pM) [4]: > 3000 nM
- IC50, hu-GRO-alpha secretion by BJ cells; IL-17A/F (3 nM) [4]: > 100 nM
- IC50, huIL-6 secretion by BJ cells; rhuIL-17A/F (300 pM) + rhuTNF-α (6 pM) [4]: > 3000 nM
- IC50, huIL-6 secretion by BJ cells; rhuIL-17A/F (3 nM) [4]: > 100 nM
- IC50, hu-GRO-alpha secretion by BJ cells; IL-17F (10 nM) + TNF-α (6 pM) (recombinant huIL-17F [5]): > 3000 nM
- IC50, hu-GRO-alpha secretion by BJ cells; IL-17F (30 nM) (recombinant huIL-17F [5]): > 1000 nM
- IC50, huIL-6 secretion by BJ cells; rhuIL-17F (10 nM) + rhuTNF-α (6 pM) (recombinant huIL-17F [5]): > 3000 nM
- IC50, huIL-6 secretion by BJ cells; rhuIL-17F (30 nM) (recombinant huIL-17F [5]): > 1000 nM
- IC50, mouse KC secretion by CMT-93 cells; mIL-17A (1 nM) (recombinant mIL-17A [6]): > 3000 nM
- IC50, mouse KC secretion by CMT-93 cells; mIL-17A/F (3 nM) [7]: > 3000 nM
- IC50, mouse KC secretion by CMT-93 cells; rIL-17A (1 nM) (rat IL-17A): > 3000 nM
- IC50, mouse KC secretion by CMT-93 cells; mIL-17F (30 nM) [8]: > 3000 nM

B1: XAB4 (antibody, human IgG1, kappa, V domains shown)
VH: EVQLVESGGDLVQPGGSLRLSCAASGFTFSSYWMSWVRQAPGKGLEWVANIKQDGSEKYYVDSVKGRFTISRDNAKNSLYLQMNSLRAEDTAVYYCARDRGSLYYWGQGTLVTVSS
VL: AIQLTQSPSSLSASVGDRVTITCRPSQGINWELAWYQQKPGKAPKLLIYDASSLEQGVPSRFSGSGSGTDFTLTISSLQPEDFATYYCQQFNSYPLTFGGGTKVEIKR
- EC50, T = 0 weeks [9]: 0.048 µg/mL
- EC50, T = 4 weeks at pH 8, 40° C. (forced deamidation) [9]: 47 ng/ml
- IC50, huIL-6 secretion by BJ cells; rhuIL-17A (1 nM) [10]: 0.63 nM
- IC50, huIL-6 secretion by BJ cells; rhuIL-17A/F (300 pM) + rhuTNF-α (6 pM) [11]: 0.17 nM
- IC50, huIL-6 secretion by BJ cells; rhuIL-17A/F (3 nM) [11]: 1.68 nM
- IC50, huIL-6 secretion by BJ cells; rhuIL-17F (10 nM) + rhuTNF-α (6 pM) (recombinant huIL-17F [12]): > 3000 nM
- IC50, huIL-6 secretion by BJ cells; rhuIL-17F (30 nM) (recombinant huIL-17F [12]): > 3000 nM
- IC50, hu-GRO-alpha secretion by BJ cells; IL-17A (30 pM) + TNF-α (6 pM) [13]: 0.007 nM
- IC50, hu-GRO-alpha secretion by BJ cells; IL-17A (1 nM) [13]: 0.35 nM
- IC50, hu-GRO-alpha secretion by BJ cells; IL-17A/F (300 pM) + TNF-α (6 pM) [14]: 0.1 nM
- IC50, hu-GRO-alpha secretion by BJ cells; IL-17A/F (3 nM) [14]: 1.11 nM
- IC50, hu-GRO-alpha secretion by BJ cells; IL-17F (10 nM) + TNF-α (6 pM) (recombinant huIL-17F [15]): > 3000 nM
- IC50, hu-GRO-alpha secretion by BJ cells; IL-17F (30 nM) (recombinant huIL-17F [15]): > 3000 nM
- IC50, huIL-6 secretion by BJ cells; rhuIL-17A (0.5 nM) [16]: 0.55 nM
- IC50, huGROα secretion by BJ cells; rhuIL-17A (0.5 nM) [17]: 0.44 nM
- IC50, mouse KC secretion by CMT-93 cells; mIL-17A (1 nM) (recombinant mIL-17A [18]): 13.8 nM
- IC50, mouse KC secretion by CMT-93 cells; mIL-17A/F (3 nM) [19]: 10.3 nM
- IC50, mouse KC secretion by CMT-93 cells; rIL-17A (1 nM) (rat IL-17A): 6.7 nM
- IC50, mouse KC secretion by CMT-93 cells; mIL-17F (30 nM) [8]: > 10000 nM
- IC50, KC secretion by CMT-93 cells; mIL-17A (0.15 nM) (recombinant mIL-17A [20]): 7 nM
